# Measured values reported in the nanobody polyreactivity screen of Harvey et al. (2022).
# Assay: yeast display, Sf9 membrane polyspecificity reagent, FACS + sequencing; frameworks hold sequencing errors
# Method in brief: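 Galactose-induced (36–48 hours) yeast carrying a synthetic nanobody display library were exposed to 10% biotinylated, detergent-solubilized Sf9 membrane reagent at 4 °C for 1 hour. FACS followed streptavidin microbead enrichment, using low and high (top ~1%) gates for expression (anti-HA) and reagent binding (streptavidin). Colony PCR, MiSeq 2 × 250 sequencing and CDR-length filtering followed. Labels for polyreactivity reflect the gate of origin.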
row,Sequence,polyreactivity (PSR sort gate)
1,QVQLVESGGGLVQAGGSLRLSCAASGSTFSANGMGWYRQAPGKERELVAAISARGGITYYADSVKGRFTISRDNAKNTVYLQMNSVKPEDTAVYYCNQRKYYRSTKYNYWGQGTQVTVSS,high polyreactivity
2,QVQLVESGGGLVQAGGSLRLSCAASGSTFSAYAMGWYRQAPGKERELVASNSYSGSSTYYADSVKGRFTISRDNAKNTVYLQMNSLKPEESAVYYCAAVYVRKGTRYGYWGQGTQVTVSS,high polyreactivity
3,QVQLVESGGGLVQAGGSLRLSCAASGSTFSAYVMGWYRQAPVKERELVAAISSIGGSTYYADSVKGRFTISRDNAKNTVYLQMNSLKPEDTAVYYCAAEPPGSTYEGGYWGQGTQVTVSS,low polyreactivity
4,QVQLVESGGGLVQAGGSLRLSCAASGSTFSDYAMGWYRPEPGKERELDATITSTGDTNYADSVKGRFTMSRDNAKTTVYLQMNSLKPEDTAVYYCAAQHKKYGKRGRWNNFGYWGQGTQVTVSS,low polyreactivity
5,QVQLVESGGGLVQAGGSLRLSCAASGSTFSDYAMGWYRQAPGKERELVAAISGGGTTDYADSVKGRFTISRDNAKNTVYLQMNSLKPEDTAVYYCNKPVEGSFLPYSYLRFDYWGQGTHVTVSS,low polyreactivity
6,QVQLVESGGGLVQAGGSLRLSCAASGSTFSDYAMGWYRQAPGKERELVAGITETGTTTYYADSVKGRFTISRDNAKNTVYLQMNSLKPEDTAVYYCAAYVVTYYYGTGYYSYDYWGQGTQVTVSS,low polyreactivity
7,QVQLVESGGGLVQAGGSLRLSCAASGSTFSENAMGWYRQAPGKERELVAAISWGGGSTYYADSVKGRFTISRDNAKNTVYLQMNSLKPEDTAVYYCIADVFDDYGYFESDYWGQGTQVTVSS,low polyreactivity
8,QVQLVESGGGLVQAGGSLRLSCAASGSTFSFNAMGWYRQAPGKERELVAAISRSGGRTYYADSVKGRFTISRDNAKNTVYLQMNSLKPEDTAVYYCNKVWFQRSVQPVEYVYWGQGTQVTVSS,high polyreactivity
9,QVQLVESGGGLVQAGGSLRLSCAASGSTFSFNAMGWYRQAPGKERELVAAITYSGGDTYYADSVKGRFTISRDNAKNTVYLQMNSLKPEDTAVYYCAAKIPRPYAMDYWGQGTQVTVSS,low polyreactivity
10,QVQLVESGGGLVQAGGSLRLSCAASGSTFSFYAMGVYRQAPGKERELVAAISKSGGRTYYADSVKGRFTISRDNAKYTVYLQMNSLKPEDTAVYYCAARGNGQYVGKYYYWGQGTQVTVSS,high polyreactivity
11,QVQLVESGGGLVQAGGSLRLSCAASGSTFSFYAMGWYRQAPGKERELVAAISRSGGRTYYADSVKGRFTISRDNAKNTVYLQMNSLKPEDTAVYYCAVEVTHYIHYYYWGQGNQVTVSS,high polyreactivity
12,QVQLVESGGGLVQAGGSLRLSCAASGSTFSFYAMGWYRQAPGKERELVAAISRSGGSTFYADSVKGRFTISRDNAKNTVYLQMNSLKPEDTAVYYCAAYGGLQSRYYYWGQGTQVTVSS,high polyreactivity
13,QVQLVESGGGLVQAGGSLRLSCAASGSTFSGNAMGWYRQAPGKERELVAAITSSGGSTYYADSVKGRFTISRDNAKNTVYLQMNSLKPEDTAVYYCAADGQYYYGFDYWGQGTQVTVSS,high polyreactivity
14,QVQLVESGGGLVQAGGSLRLSCAASGSTFSGNARGWDRQAPGKERELVAAISRRGGSTNYADSVKGRFTISRDNAKYTVYLKMNSLKPEDTAVYYCNKGDYRSAYRHIEYGYWGQGTQVTVSS,low polyreactivity
15,QVQLVESGGGLVQAGGSLRLSCAASGSTFSGYAMGWYRLAPGKERELVASISSGGRTTYADSVKGRFTISRDNAKYTVYLQMNSLKPEDTAVSYCANRIRPGYARLYSWGQGTQVTVSS,high polyreactivity
16,QVQLVESGGGLVQAGGSLRLSCAASGSTFSGYAMGWYRQAPGKERELVAAITLGGGSTYYADSVKGRFTISRDNAKNTVYLQMNSLKPEDTAVYYCAAGDIYYAEYDYWGQGTQVTVSS,low polyreactivity

row,Sequence,polyreactivity (PSR sort gate)
1,QVQLVESGGGLVQAGGSLRLSCAASGSTFSGYAMGWYRQAPGKERELVAAITSGGGTYYADSVKGRFTISRDNAKNTVYLQMNSLKPEDTAVYYCAADGIARAYVLLDAYDFLYDYWGQGTQVTVSS,low polyreactivity
2,QVQLVESGGGLVQAGGSLRLSCAASGSTFSGYTMGWYRQAPGKEREFVAAISVSGGSTYYADSVKGRFTISRDNAKNTVYLQMNSLKPEDTAVYYCNTVTSGFLSYDYWGQGTQVTVSS,high polyreactivity
3,QVQLVESGGGLVQAGGSLRLSCAASGSTFSGYVMGWYRQAPGKERELVAAISSSGGGSTYYADSVKGRFTISRDNAKNTVYLQMNSLKPEDTAVYYCAARNYRKYDYWGQGTQVTVSS,high polyreactivity
4,QVQLVESGGGLVQAGGSLRLSCAASGSTFSHNTMGWYRQAPGKERELVAAISSRGSSTYYADSVKGRFTISRDNAKNTVYLQMNSLKPEDTAVYYCAARYLRGTWAGLGYDYWGQGTQVTVSS,low polyreactivity
5,QVQLVESGGGLVQAGGSLRLSCAASGSTFSHYAMGWYRQATGKERELVAAISKSGGITYYADSVKGRFTISRDNAKNTVYLQMNSLKPEDTAVYYCNARWSWRGTRYDYGYWGQGTQVTVSS,low polyreactivity
6,QVQLVESGGGLVQAGGSLRLSCAASGSTFSIYAMGWYRQAPGKERELVAAISFSDASTYYADSVKGRFTISRDNAKNTVYLQMNSLKPEDTAVYYCAAVVGAFKRRFYYWGQGTQVTVSS,high polyreactivity
7,QVQLVESGGGLVQAGGSLRLSCAASGSTFSIYAMGWYRQAPGKERELVADITANGGSTYYADSVKGRFTISRDNAKNTVYLPMNSLKPEDTAVYYCAADAKSFDAVHYDYWGQGTHVTVSS,low polyreactivity
8,QVQLVESGGGLVQAGGSLRLSCAASGSTFSIYARGWYRPAPGKERELVAAISYSDGTTYSADSVKGRFTISRDNAKNTDYVQMNSLKPEDTAVYYCATQQIWTSWYDRFDYWGQGTQVTVSS,low polyreactivity
9,QVQLVESGGGLVQAGGSLRLSCAASGSTFSKNAMGWNRQAPGKERELFAAIRSRGGSTYYADSVKGRFTISRDNAKNTVYLQMNSLKPEDTAVYYCNKVRAYECDYWGQGTKVTVSS,high polyreactivity
10,QVQLVESGGGLVQAGGSLRLSCAASGSTFSKYTMGWYRQAPGKERELVAAISVSVGRTYYADSVKGRFTISRDNAKNTVYLQMNSLKPEDTAVYYCAAAYSGLYYWGQGTQVTVSS,high polyreactivity
11,QVQLVESGGGLVQAGGSLRLSCAASGSTFSLNAIGWFRQAPGKERQLVAAITGRGTRTYYADSVKGRFTLSRDNAKNTVYLQMNSLKPEDTAVYYCAKDYPRGSPYGYNYWGQGTQVTVSS,high polyreactivity
12,QVQLVESGGGLVQAGGSLRLSCAASGSTFSLYAMGWYRQAPGKERELVAAINSGTSTYYADSVKGRFTISRDNAKNTVYLQMNSLKPEDTAVYYCAADGYPLQLYNYWGQGTQVTVSS,low polyreactivity
13,QVQLVESGGGLVQAGGSLRLSCAASGSTFSLYAMGWYRQAPGKERELVARISYTDGSTYYADSVKGRFTISRDNAKNTVYLQMNSLKPEDTAVYYCAADAWYSYTLEDYWGQGTQVTVSS,low polyreactivity
14,QVQLVESGGGLVQAGGSLRLSCAASGSTFSLYAMGWYRQSPGKETELVASITWGGGSTYADSVKRLFTISRDNAKNTVYLQMNSLKPEDPAVYYCARKYRYRVLYDFAYDHWGQGTEVTVSS,low polyreactivity
15,QVQLVESGGGLVQAGGSLRLSCAASGSTFSLYGMGWYRQAPGKERELVAAIRRSGGRTYYADSVKGRFTISRDNAKNTVYLQMNSLKPEDTAVYYCAKSVPRYYSKSGLAYEFDYWGQGTQVTVSS,low polyreactivity
